5 molecules from patent publication US20250084179A1 (Xencor, published 2025) can be followed below.

Residue numbers refer to the chain shown, from its start.

In one assay the target is T1, Cyno TROP2 (Macaca fascicularis, UniProt A0A2K5UE71).
T1 construct: Construct used in the measurement is not described; also called cynomolgus TROP2
T1 sequence (antigen): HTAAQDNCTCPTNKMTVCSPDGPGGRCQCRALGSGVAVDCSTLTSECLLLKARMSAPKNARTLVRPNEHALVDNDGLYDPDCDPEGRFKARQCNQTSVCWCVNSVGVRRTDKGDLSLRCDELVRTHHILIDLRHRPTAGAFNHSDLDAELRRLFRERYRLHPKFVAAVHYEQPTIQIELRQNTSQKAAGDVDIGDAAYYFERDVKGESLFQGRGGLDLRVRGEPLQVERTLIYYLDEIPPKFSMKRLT
The assay can be described thus: not stated; bivalent format.

Assay [1] has as its target T2, TROP2 (UniProt P09758 27-274, limits assumed).
T2 construct: also called tumor-associated calcium signal transducer 2; TACSTD2
T2 sequence (looked up): T1 sequence (antigen) with V36M, E46K, N67S, V204I
The assay can be described thus: not stated; bivalent format.

Assay [2] addresses T2, TROP2. The assay can be described thus: monovalent KD; method not stated.
In assay [3] the target is T3, human CD28 (human, UniProt P10747 19-152, limits assumed).
T3 construct: also called Cluster of Differentiation 28; Tp44
Put plainly: Octet, monovalent KD; format of this comparator not stated.

For assay [4], the target named is T3, human CD28. Put plainly: not stated; value printed beside the name in the 'CD28 Mutations' cell, apparently a reference affinity of this domain.
Assay [5] addresses T3, human CD28. Put plainly: another set of experiments; monovalent Fab, method not restated (Octet for the FIG. 35 data).
Assay [6] concerns the target T3, human CD28. Put plainly: Octet, monovalent KD of Fab.

B1: 1F11-1A3.315_H1.10_L1 (antibody, V domains shown)
VH: QVQLVQSGAEVKKPGASVKVSCKASGYTFTRYYMHWVRQAPGQGLEWMGIIEPGGGSTTYAQKFQGRVTMTRDTSTSTVYMELSSLRSEDTAVYYCARDDVVAADVFDYWGQGTLVTVSS
VL: not shown
notes: also called 1F11-1A3.315[Trop2]_H1.10 with L1
In the assay with Cyno TROP2, B1 yielded a Kd of 1.5 nM, a koff of 0.00053 s⁻¹ and a kon of 340000 M⁻¹ s⁻¹. In the assay with TROP2 [1], this molecule had a Kd of 0.98 nM, a koff of 0.00033 s⁻¹ and a kon of 330000 M⁻¹ s⁻¹. In the assay with TROP2 [2], the Kd is 5 nM.

B2: 1F11-1A3.315_H1.19_L1 (antibody, V domains shown)
VH: B1 VH with F29L, A103K
VL: not shown
notes: also called 1F11-1A3.315[Trop2]_H1.19 with L1
As for B2, in the assay with Cyno TROP2, the Kd amounted to 0.46 nM, the koff worked out at 0.0002 s⁻¹ and the kon was 450000 M⁻¹ s⁻¹. In the assay with TROP2 [1], the Kd is 0.25 nM, the koff worked out at 0.0001 s⁻¹ and the kon worked out at 410000 M⁻¹ s⁻¹. Moreover, in the assay with TROP2 [2], the Kd came out at 2 nM.

B3: 1A7_H1.14_L1.71 (antibody, V domains shown)
VH: EVQLLESGGGLVQPGGSLRLSCAASGFTFSSYYMSWVRQAPGKGLEWVSTISESGDSTYYADSVKGRFTISRDNSKNTLYLQMNSLRAEDTAVYYCAKSGPGLRQVGFDYWGQGTLVTVSS
VL: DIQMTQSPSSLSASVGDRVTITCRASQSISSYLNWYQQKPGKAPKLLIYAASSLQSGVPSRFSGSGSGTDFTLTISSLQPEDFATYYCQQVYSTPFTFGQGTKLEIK
notes: also called 1A7[CD28]_H1.14_L1.71
For B3, the results for the Kd with human CD28 [3] and in the assay with human CD28 [4] were 38 nM and 37 nM, respectively.

B4: 1A7_H1.129_IGKV1-39_L1 (Fab, V domains shown)
VH: B3 VH with S54R, G55A
VL: not shown
notes: Constant domains not specified for the assay; also called 1A7[CD28]_H1.129 paired with IGKV1-39 germline VL; 1F11-1A3.315 L1 as common light chain
On to B4, for which the Kd in the assay with human CD28 [5] is 60 to 70 nM; with human CD28 [6] it was 21 nM.

B5: 1A7_H1.118_IGKV1-39_L1 (Fab, V domains shown)
VH: B3 VH with S52A, S57P
VL: not shown
notes: also called 1A7[CD28]_H1.118 paired with IGKV1-39 germline VL
Consider B5, for which the Kd was about 400 nM with human CD28 [5] and 63 nM with human CD28 [6].
